Laboratory results from the supplement of paper PMC9112550, “Optimization of the antimicrobial peptide Bac7 by deep mutational scanning” (BMC Biology, 2022).

System: Escherichia coli TOP10
Assay: shrunken log2 fold change of peptide-encoding DNA abundance (4.5 h post-induction vs induction); higher = less antimicrobial activity (less host growth inhibition)
Conditions: time post-induction: 4.5 h; library: site-saturation at positions 5, 18, 19, 20
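Further: peptides expressed intracellularly from a pBAD plasmid library in pooled LB shake-flask culture, induced with 0.3% L-arabinose, DNA abundance read by NGS, three biological replicates, DESeq2 with apeglm shrinkage.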

RRIRMRPPRLPRPRPRPRGYPRP
shrunken log2 fold change: 0.0597

RRIRFRPPRLPRPRPRPVMDPRP
shrunken log2 fold change: -0.378

RRIRNRPPRLPRPRPRPSNYPRP
shrunken log2 fold change: -0.791

RRIRDRPPRLPRPRPRPGYMPRP
shrunken log2 fold change: -0.649

RRIRLRPPRLPRPRPRPNKDPRP
shrunken log2 fold change: -0.683

RRIRWRPPRLPRPRPRPKVGPRP
shrunken log2 fold change: 0.0351

RRIRDRPPRLPRPRPRPHGFPRP
shrunken log2 fold change: -0.00776

RRIRHRPPRLPRPRPRPGGIPRP
shrunken log2 fold change: -0.092

RRIRDRPPRLPRPRPRPHPGPRP
shrunken log2 fold change: 0.163

RRIRYRPPRLPRPRPRPFNKPRP
shrunken log2 fold change: -0.00496

RRIRPRPPRLPRPRPRPRSTPRP
shrunken log2 fold change: 0.347

RRIRGRPPRLPRPRPRPNTAPRP
shrunken log2 fold change: 0.543

RRIRERPPRLPRPRPRPERSPRP
shrunken log2 fold change: 0.149

RRIRLRPPRLPRPRPRPIYMPRP
shrunken log2 fold change: -0.199

RRIRIRPPRLPRPRPRPKIYPRP
shrunken log2 fold change: -0.581

RRIRRRPPRLPRPRPRPNWTPRP
shrunken log2 fold change: -0.285

RRIRKRPPRLPRPRPRPVHMPRP
shrunken log2 fold change: -0.0183

RRIRQRPPRLPRPRPRPMALPRP
shrunken log2 fold change: 0.00414

RRIRGRPPRLPRPRPRPWDVPRP
shrunken log2 fold change: -0.00788

RRIRFRPPRLPRPRPRPNTPPRP
shrunken log2 fold change: -0.263

RRIRFRPPRLPRPRPRPAMMPRP
shrunken log2 fold change: 0.0488

RRIRERPPRLPRPRPRPMYEPRP
shrunken log2 fold change: -0.00246

RRIRMRPPRLPRPRPRPWILPRP
shrunken log2 fold change: -0.201

RRIRARPPRLPRPRPRPRIAPRP
shrunken log2 fold change: 0.631

RRIRKRPPRLPRPRPRPVMFPRP
shrunken log2 fold change: 0.124

RRIRARPPRLPRPRPRPLHDPRP
shrunken log2 fold change: 0.341

RRIRIRPPRLPRPRPRPTFCPRP
shrunken log2 fold change: -0.02

RRIRGRPPRLPRPRPRPMVFPRP
shrunken log2 fold change: 0.78

RRIRERPPRLPRPRPRPHSAPRP
shrunken log2 fold change: -0.179

RRIRNRPPRLPRPRPRPTLRPRP
shrunken log2 fold change: 0.334

RRIRMRPPRLPRPRPRPAMWPRP
shrunken log2 fold change: 0.511

RRIRWRPPRLPRPRPRPHEDPRP
shrunken log2 fold change: 0.185

RRIRFRPPRLPRPRPRPARGPRP
shrunken log2 fold change: 0.624

RRIRERPPRLPRPRPRPNWDPRP
shrunken log2 fold change: -0.125

RRIRLRPPRLPRPRPRPYCIPRP
shrunken log2 fold change: -0.121

RRIRPRPPRLPRPRPRPSKMPRP
shrunken log2 fold change: -0.169

RRIRTRPPRLPRPRPRPYRGPRP
shrunken log2 fold change: -0.519

RRIRWRPPRLPRPRPRPWNPPRP
shrunken log2 fold change: -0.219

RRIRLRPPRLPRPRPRPATCPRP
shrunken log2 fold change: -0.597

RRIRKRPPRLPRPRPRPPMQPRP
shrunken log2 fold change: 0.439

RRIRLRPPRLPRPRPRPKMAPRP
shrunken log2 fold change: 0.259

RRIRHRPPRLPRPRPRPITKPRP
shrunken log2 fold change: -0.107

RRIRIRPPRLPRPRPRPYGHPRP
shrunken log2 fold change: 0.0184

RRIRYRPPRLPRPRPRPCEYPRP
shrunken log2 fold change: -0.138

RRIRGRPPRLPRPRPRPDCPPRP
shrunken log2 fold change: 0.22

RRIRPRPPRLPRPRPRPEENPRP
shrunken log2 fold change: 0.163

RRIRWRPPRLPRPRPRPAYTPRP
shrunken log2 fold change: 0.0906

RRIRARPPRLPRPRPRPDCMPRP
shrunken log2 fold change: 0.386

RRIRKRPPRLPRPRPRPIRYPRP
shrunken log2 fold change: -0.118

RRIRGRPPRLPRPRPRPSAYPRP
shrunken log2 fold change: 1.07

RRIRGRPPRLPRPRPRPSLGPRP
shrunken log2 fold change: 0.488

RRIRIRPPRLPRPRPRPYPTPRP
shrunken log2 fold change: -0.159

RRIRCRPPRLPRPRPRPWYCPRP
shrunken log2 fold change: -0.248

RRIRPRPPRLPRPRPRPHNFPRP
shrunken log2 fold change: 0.0735

RRIRHRPPRLPRPRPRPPRPPRP
shrunken log2 fold change: 0.664

RRIRSRPPRLPRPRPRPGCFPRP
shrunken log2 fold change: 0.225

RRIRFRPPRLPRPRPRPITMPRP
shrunken log2 fold change: -0.503

RRIRVRPPRLPRPRPRPDKPPRP
shrunken log2 fold change: 0.028

RRIRVRPPRLPRPRPRPHRIPRP
shrunken log2 fold change: -0.0697

RRIRCRPPRLPRPRPRPSLNPRP
shrunken log2 fold change: -0.341
